Patent US20200018762

Key:
FLAG-tagged H2B = FLAG-tagged H2B (UniProt P62807)
[1] = target: FLAG-tagged Y37F mutant-H2B (UniProt P62807)
[2] = system: purified human H2A recombinant protein (NEB)
[3] = system: H2B peptide with a Tyr37-to-Phe mutation (SRKESFSVYVYK)
[4] = target: purified human H3 recombinant protein (NEB) (UniProt P68431)
[5] = target: purified human H4 recombinant protein (NEB) (UniProt P62805)
[6] = system: H2B peptide spanning Tyr37 (Tyr37-H2B; SRKESYSVYVYK)
[7] = target: purified human H2B recombinant protein (NEB) (UniProt P62807)
[8] = system: biotinylated human histone H2B derived peptide KRSRKESYSVYVYKVL
[9] = system: biotinylated H4-derived unphosphorylated peptide TVTAMDVVYALKRQGRT

recombinant GST-WEE1 protein (Invitrogen), sequence (chain, as listed by the source): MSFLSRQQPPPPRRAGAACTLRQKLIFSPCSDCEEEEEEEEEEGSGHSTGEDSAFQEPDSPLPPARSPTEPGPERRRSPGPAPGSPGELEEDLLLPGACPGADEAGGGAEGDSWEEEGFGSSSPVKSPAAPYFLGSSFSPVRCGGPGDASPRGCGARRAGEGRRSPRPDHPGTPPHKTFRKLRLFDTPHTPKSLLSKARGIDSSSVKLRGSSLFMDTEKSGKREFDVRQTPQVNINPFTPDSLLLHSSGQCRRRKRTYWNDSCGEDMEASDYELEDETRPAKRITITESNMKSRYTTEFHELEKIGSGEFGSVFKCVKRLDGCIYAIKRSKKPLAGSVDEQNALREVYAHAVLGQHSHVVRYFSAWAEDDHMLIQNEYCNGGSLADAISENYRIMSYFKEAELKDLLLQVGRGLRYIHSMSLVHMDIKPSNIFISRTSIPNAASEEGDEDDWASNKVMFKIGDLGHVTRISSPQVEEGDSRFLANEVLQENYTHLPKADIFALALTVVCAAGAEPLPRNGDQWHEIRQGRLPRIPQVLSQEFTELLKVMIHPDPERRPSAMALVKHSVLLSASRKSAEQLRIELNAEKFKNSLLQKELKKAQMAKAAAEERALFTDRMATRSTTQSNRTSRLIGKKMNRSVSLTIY
purified WEE1 protein (Examples 5 and 7), sequence (chain, as listed by the source): as above
Myc-tagged WEE1 (WT), sequence (chain, as listed by the source): as above

Substance: Myc-tagged WEE1 (WT)
- coexpression in MEFs, immunoprecipitation with pTyr37-H2B antibodies, FLAG immunoblot (FLAG-tagged H2B): the WT-WEE1 specifically phosphorylated H2B
- coexpression in MEFs, immunoprecipitation with pTyr37-H2B antibodies, FLAG immunoblot [1]: failed to phosphorylate Y37F mutant (FIG. 13G)

Substance: recombinant GST-WEE1 protein (Invitrogen)
- in vitro kinase assay, immunoblot with pTyr37-H2B antibody [2]: WEE1 specifically phosphorylated H2B and failed to phosphorylate other three core histones, H2A, H3 and H4 (FIG. 13E)
- in vitro kinase reaction with peptide, dot blot with pTyr37-H2B antibody [3]: Y37F mutant peptide was not phosphorylated
- in vitro kinase assay, immunoblot with pTyr37-H2B antibody [4]: WEE1 specifically phosphorylated H2B and failed to phosphorylate other three core histones, H2A, H3 and H4 (FIG. 13E)
- in vitro kinase assay, immunoblot with pTyr37-H2B antibody [5]: WEE1 specifically phosphorylated H2B and failed to phosphorylate other three core histones, H2A, H3 and H4 (FIG. 13E)
- in vitro kinase reaction with peptide, dot blot with pTyr37-H2B antibody [6]: WEE1 phosphorylated H2B peptide
- in vitro kinase assay, immunoblot with pTyr37-H2B antibody [7]: When purified WEE1 and H2B were incubated, H2B was Tyr37-phosphorylated, however, WEE1 inhibitor abrogated H2B pTyr37-phosphorylation (FIG. 13D)

Substance: purified WEE1 protein (Examples 5 and 7)
- Peptide Immunosandwich Assay (kinase reaction on immobilized peptide, detection with pY37-H2B antibodies, OD 450 nm) [8]: Purified WEE1 exhibited robust H2B Tyr37-phosphorylation and a significant decrease in pY37-H2B levels was observed upon incubation with 5 uM of MK-1775 (FIG. 34)
- in vitro kinase assay on immobilized peptide, ELISA with pY88-H4 antibodies [9]: Incubation of H4 peptide with WEE1 and Ack1 protein resulted in robust H4 Tyr88-phosphorylation
